Data reported in patent US12281155.

Key:
Conditions in all cases: remark: other sources report otherwise
[1] = target: T1, recombinant SARS-CoV-2 Spike RBD domain, BA.2 variant (SARS-CoV-2); assay: ELISA on coated RBD
[2] = target: T2, recombinant SARS-CoV-2 Spike RBD domain, BA.4/5 variant (SARS-CoV-2); assay: ELISA on coated RBD
[3] = target: T3, recombinant SARS-CoV-2 Spike RBD domain, Delta variant (SARS-CoV-2); assay: ELISA on coated RBD
[4] = target: T1, recombinant SARS-CoV-2 Spike RBD …; assay: competition ELISA, blocking of RBD binding to ACE2 ectodomain
[5] = target: T2, recombinant SARS-CoV-2 Spike RBD …; assay: as above
[6] = target: T3, recombinant SARS-CoV-2 Spike RBD …; assay: as above

B1: SPK002 antibody (parental version Cv2.3194 described in WO 2022/228827) (antibody, V domains shown)
VH: EVQLVESGGGLIQPGGSLRLSCAASGITVTSNYMSWVRQAPGKGLEWVSVIYPGGSTFYADSVKGRFTISRDNSKNTLYLQMNSLRAEDTAVYYCARDLVVYGMDVWGQGTTVTVS
VL: EIVLTQSPGTLSLSPGERATLSCRASQSVSSSYLAWYQQKPGQAPRLLIYGASSRATGIPGRFSGSGSGTDFTLTISRLEPEDFAIYYCQQGVTFGGGTKVEIK
Binding AUC [1]: 33
Binding AUC [2]: 33
Binding AUC [3]: 34
Blocking % [4]: 94%
Blocking % [5]: 92%
Blocking % [6]: 93%
